Read-outs that look alike come from different tables or passages of the source.
Assays:
[1] = target: T1, Human HER3 receptor (human, UniProt P21860 20-1342); experiment: cell-based or functional assay
[2] = target: T2, Human HER3 ECD domain 1-2 protein (human, UniProt P21860 20-329); experiment: BIACORE 2000 SPR, mAb captured, HER3 protein as analyte, 25 C
T2 construct: also called D1-2; sub-domains 1-2
Protocol: (§1) Mouse monoclonal antibodies were analysed using rabbit anti-mouse (RAM) IgG (GE Healthcare BR-1008-38) covalently coupled to a BIACORE™ CM5 chip (GE HEalthcare BR-1000-14) by primary amine chemistry (NHS/EDC activated) (GE Healthcare amine coupling kit BR-1000-50). Chimeric and humanized competitor monoclonal antibodies were analyzed using anti-human, Fc specific monoclonal (GE Healthcare BR-1008-39) similarly coupled. Each chip was also prepared with a reference surface to which no capture reagent antibody is coupled. Sensorgrams for cycles run with differing analyte concentrations are acquired for kinetic analysis. A cycle consists of capturing the monoclonal on the surface, a short stabilization period with flowing run buffer followed by binding of a defined concentration of analyte (ECD or sub-domain protein). Injection of analyte for surface binding (3-4 minutes) yields the association part of curve. This is followed by buffer only flow (3-4 minutes) which allows recording of dissociation data.
(§2) The general method for affinity analysis is as follows. First, chips were prepared and tested for reasonance units (RU) captured for several monoclonal antibody concentrations. Kinetic cycles were then run in which monoclonal antibody was captured to a level of approximately 100RU, analyte protein was allowed to bind then dissociate and the surface was regenerated to remove all but covalently coupled protein. RAM chips were regenerated with capture kit supplied 100 mM glycine pH1.7 and anti-human chips with capture kit supplied 3M MgCl₂. […] Several buffer cycles were run prior to analyte protein to ensure cycle consistency and in some experiments a buffer cycle is used a “double reference[.]” Analytes used were human full length HER3 extra cellular domain (ECD), separate sub-domains of the extracellular portion of human HER3 (D1, D2, D3, D4), or combination HER3 domain proteins (D1-2 and D2-3).

[3] = target: T3, Human HER3 ECD domain 2-3 protein (human, UniProt P21860 184-495); experiment: as above
T3 construct: also called D2-3; sub-domains 2-3
Protocol: as §1, §2

[4] = target: T4, Full-length human HER3 extracellular domain (ECD) (human, UniProt P21860 20-643); experiment: as above
T4 construct: also called human HER3 ECD; HER-3 ECD full length
Protocol: as §1, §2

[5] = target: T5, Human HER3 ECD domain II (human, UniProt P21860 184-329); experiment: as above
T5 construct: also called D2; Domain 2
Protocol: as §1, §2

[6] = target: T6, Human HER3 ECD domain III (human, UniProt P21860 330-495); experiment: DELFIA, plate coated with HER3 Domain III 1ug/ml
T6 construct: also called D3; Domain 3
Protocol: (§3) Dissociation Enhanced Lanthanide Fluorescence Immunoassay (DELFIA) for detection of the anti-HER3 antibodies to HER3 extracellular domain (ECD) was used. The DELFIA procedures were as follows: white Maxisorp 96-well plates (Nunc #437796) were coated with 100 ul/well of 1 ug/ml HER-3 ECD full length or HER3Domain I, II, III and IV in 0.1M carbonate buffer pH 9.5 overnight at 4° C. These plates were blocked with casein in TBS (Thermo Scientific #37532 lot#JD121074). The neat hybridoma supernatant, or the purified anti-HER3 antibodies diluted in Perkin Elmer #4002-0010 Assay Buffer from 10 ug/ml (or 100 ug/ml) to 0.01 ug/ml, or the PK serum samples with a minimum of 3 dilutions (100 ul/well) were added to the plate. These samples were incubated for 2 hours at room temperature while on a plate shaker or overnight at 4° C. […] The plate was washed 4 times with tris-buffer plus 0.05% tween-20 (Perkin Elmer #4010-0010) on a BIOTEK™ plate washer following each antibody incubation step. 100 ul/well of DELFIA enhancement solution (Perkin Elmer 1244-105) was added for 5 minutes at room temperature. […] Antibody binding was recorded as europium counts per well.

[7] = target: T1, Human HER3 receptor; experiment: cell-based or functional assay; remark: listed apart in the source
[8] = target: T1, Human HER3 receptor; experiment: cell-based or functional assay; remark: listed apart in the source
[9] = target: T5, Human HER3 ECD domain II; experiment: DELFIA (europium time-resolved fluorescence), plate coated with HER3 Domain II 1ug/ml, antibody titrated 0.001-10 ug/ml
[10] = target: T7, Murine HER3 on B16 and B16F10 melanoma cells (murine, UniProt Q61526 20-1339); experiment: flow cytometry on B16F10 murine melanoma cells, antibody labelled with a Zenon APC kit [c]
T7 construct: whole, on cells
From the text: B16F10 ZENON™ labeling kits: [0530] Mouse IgG1 PE—Invitrogen Z25021 [0531] Mouse IgG1 APC—Invitrogen Z25051 [0532] Mouse IgG2b APC—Invitrogen Z25151 Method: Commercially available anti-human EGFR and HER2 antibodies were provided. A commercially available HER3 antibody represented by the provider to recognizes human HER3 was provided. The murine 15D5 antibody, murine 1D9 antibody (M5.1D9.1F5), murine 24H5 antibody (M5.24H5.C2) antibodies were also provided. These antibodies were labeled with either PE or APC using the ZENON™ labeling kits (Invitrogen). 5×10⁶ B 16, or B16F10, murine melanoma cells were added to flow cytometry tubes containing the labeled anti-HER3 antibodies. Cells and antibodies were incubated for 30 minutes on ice in the dark, washed and resuspended in FACS buffer. Cells were then analyzed on a FACSCANTO™ flow cytometer. Data analysis was performed using […]™ software, developed by BD Biosciences. Cell populations were gated using forward vs. side scatter and histograms of fluorescent intensities were generated.

[11] = target: T4, Full-length human HER3 extracellular …; experiment: affinity summary table, method not given
[12] = target: T5, Human HER3 ECD domain II; experiment: affinity summary table, method not given
[13] = target: T1, Human HER3 receptor; experiment: cell-based or functional assay; remark: listed apart in the source
[14] = target: T8, Human HER3 ECD domain IV (human, UniProt P21860 496-643); experiment: DELFIA, plate coated with HER3 Domain IV 1ug/ml
T8 construct: also called D4; sub-domain 4
Protocol: as §3

[15] = target: T9, Human HER3 ECD domain I (human, UniProt P21860 20-183); experiment: DELFIA, plate coated with HER3 Domain I 1ug/ml
T9 construct: also called D1; sub-domain 1
Protocol: as §3

T4 sequence (P21860 20-643): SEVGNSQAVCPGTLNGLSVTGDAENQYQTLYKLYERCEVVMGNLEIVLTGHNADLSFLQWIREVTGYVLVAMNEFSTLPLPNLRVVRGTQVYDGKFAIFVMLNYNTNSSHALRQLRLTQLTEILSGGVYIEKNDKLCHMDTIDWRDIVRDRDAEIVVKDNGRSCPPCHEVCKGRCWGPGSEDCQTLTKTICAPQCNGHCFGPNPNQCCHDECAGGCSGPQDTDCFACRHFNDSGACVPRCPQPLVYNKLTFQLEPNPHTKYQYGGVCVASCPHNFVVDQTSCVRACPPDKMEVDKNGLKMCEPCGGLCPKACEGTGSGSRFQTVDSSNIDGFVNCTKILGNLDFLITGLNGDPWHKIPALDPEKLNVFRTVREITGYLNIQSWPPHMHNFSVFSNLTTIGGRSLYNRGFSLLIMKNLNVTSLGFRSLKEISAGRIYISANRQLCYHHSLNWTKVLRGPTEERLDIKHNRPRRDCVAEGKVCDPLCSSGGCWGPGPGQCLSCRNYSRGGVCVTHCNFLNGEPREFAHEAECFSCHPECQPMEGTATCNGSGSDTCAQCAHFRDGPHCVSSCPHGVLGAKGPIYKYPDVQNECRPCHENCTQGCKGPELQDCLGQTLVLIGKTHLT
T1 sequence (P21860 20-1342 limits assumed): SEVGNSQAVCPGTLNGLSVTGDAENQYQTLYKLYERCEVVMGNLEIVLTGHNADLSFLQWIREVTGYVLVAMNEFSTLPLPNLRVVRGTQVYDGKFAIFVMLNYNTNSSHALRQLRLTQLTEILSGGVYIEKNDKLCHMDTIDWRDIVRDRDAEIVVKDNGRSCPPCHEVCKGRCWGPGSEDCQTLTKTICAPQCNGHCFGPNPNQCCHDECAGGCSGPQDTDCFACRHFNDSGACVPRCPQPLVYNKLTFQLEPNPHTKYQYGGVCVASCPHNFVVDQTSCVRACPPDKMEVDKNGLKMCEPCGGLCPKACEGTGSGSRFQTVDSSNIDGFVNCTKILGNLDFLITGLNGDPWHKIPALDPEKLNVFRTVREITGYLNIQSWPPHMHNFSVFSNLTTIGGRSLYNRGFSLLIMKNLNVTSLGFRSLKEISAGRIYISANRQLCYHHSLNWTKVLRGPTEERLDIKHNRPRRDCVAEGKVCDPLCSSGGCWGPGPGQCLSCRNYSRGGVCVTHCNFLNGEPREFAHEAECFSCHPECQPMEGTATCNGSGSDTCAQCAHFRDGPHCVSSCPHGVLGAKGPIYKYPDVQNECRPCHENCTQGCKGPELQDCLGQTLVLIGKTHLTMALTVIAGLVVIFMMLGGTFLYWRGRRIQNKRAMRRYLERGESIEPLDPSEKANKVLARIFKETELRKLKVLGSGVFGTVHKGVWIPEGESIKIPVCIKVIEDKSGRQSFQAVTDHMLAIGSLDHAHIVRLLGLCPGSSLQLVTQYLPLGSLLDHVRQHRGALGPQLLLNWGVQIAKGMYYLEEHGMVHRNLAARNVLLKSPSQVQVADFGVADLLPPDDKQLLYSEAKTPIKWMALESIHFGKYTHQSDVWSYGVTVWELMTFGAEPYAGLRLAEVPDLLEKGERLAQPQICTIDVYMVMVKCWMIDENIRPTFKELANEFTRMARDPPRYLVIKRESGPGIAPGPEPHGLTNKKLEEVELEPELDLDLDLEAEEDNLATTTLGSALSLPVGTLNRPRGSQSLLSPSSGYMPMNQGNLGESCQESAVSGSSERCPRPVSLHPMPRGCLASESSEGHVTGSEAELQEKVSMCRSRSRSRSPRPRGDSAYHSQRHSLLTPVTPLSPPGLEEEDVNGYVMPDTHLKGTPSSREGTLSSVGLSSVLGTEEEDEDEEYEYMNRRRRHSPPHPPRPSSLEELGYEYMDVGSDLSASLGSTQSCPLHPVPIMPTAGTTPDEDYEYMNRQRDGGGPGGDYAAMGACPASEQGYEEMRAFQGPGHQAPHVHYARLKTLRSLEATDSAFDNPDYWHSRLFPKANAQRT
T5 sequence (P21860 184-329): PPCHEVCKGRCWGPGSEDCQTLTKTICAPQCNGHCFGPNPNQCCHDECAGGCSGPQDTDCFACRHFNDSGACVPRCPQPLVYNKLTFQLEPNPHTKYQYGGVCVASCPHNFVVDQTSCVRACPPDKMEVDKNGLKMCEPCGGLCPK
T2 sequence (P21860 20-329): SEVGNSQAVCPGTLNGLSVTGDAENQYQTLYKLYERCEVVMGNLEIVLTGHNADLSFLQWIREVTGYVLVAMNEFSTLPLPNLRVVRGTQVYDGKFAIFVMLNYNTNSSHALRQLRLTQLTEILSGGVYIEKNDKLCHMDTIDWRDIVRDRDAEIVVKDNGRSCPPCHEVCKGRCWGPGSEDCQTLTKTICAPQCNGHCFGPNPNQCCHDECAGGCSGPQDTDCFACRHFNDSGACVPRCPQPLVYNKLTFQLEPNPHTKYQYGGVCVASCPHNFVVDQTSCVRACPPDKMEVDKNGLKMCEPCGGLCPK
T3 sequence (P21860 184-495): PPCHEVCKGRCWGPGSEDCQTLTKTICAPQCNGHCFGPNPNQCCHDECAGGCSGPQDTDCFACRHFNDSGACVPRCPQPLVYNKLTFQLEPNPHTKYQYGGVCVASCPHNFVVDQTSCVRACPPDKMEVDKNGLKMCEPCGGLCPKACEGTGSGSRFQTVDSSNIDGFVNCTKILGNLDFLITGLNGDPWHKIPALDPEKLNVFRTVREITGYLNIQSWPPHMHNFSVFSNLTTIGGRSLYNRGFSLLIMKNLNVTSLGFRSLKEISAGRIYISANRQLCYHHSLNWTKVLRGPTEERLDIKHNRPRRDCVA
T6 sequence (P21860 330-495): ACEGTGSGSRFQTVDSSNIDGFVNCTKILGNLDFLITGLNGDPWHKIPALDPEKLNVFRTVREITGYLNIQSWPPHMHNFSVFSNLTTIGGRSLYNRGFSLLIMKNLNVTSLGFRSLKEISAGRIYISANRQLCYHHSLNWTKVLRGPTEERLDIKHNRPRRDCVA
T7 sequence (Q61526 20-1339, one chain of several): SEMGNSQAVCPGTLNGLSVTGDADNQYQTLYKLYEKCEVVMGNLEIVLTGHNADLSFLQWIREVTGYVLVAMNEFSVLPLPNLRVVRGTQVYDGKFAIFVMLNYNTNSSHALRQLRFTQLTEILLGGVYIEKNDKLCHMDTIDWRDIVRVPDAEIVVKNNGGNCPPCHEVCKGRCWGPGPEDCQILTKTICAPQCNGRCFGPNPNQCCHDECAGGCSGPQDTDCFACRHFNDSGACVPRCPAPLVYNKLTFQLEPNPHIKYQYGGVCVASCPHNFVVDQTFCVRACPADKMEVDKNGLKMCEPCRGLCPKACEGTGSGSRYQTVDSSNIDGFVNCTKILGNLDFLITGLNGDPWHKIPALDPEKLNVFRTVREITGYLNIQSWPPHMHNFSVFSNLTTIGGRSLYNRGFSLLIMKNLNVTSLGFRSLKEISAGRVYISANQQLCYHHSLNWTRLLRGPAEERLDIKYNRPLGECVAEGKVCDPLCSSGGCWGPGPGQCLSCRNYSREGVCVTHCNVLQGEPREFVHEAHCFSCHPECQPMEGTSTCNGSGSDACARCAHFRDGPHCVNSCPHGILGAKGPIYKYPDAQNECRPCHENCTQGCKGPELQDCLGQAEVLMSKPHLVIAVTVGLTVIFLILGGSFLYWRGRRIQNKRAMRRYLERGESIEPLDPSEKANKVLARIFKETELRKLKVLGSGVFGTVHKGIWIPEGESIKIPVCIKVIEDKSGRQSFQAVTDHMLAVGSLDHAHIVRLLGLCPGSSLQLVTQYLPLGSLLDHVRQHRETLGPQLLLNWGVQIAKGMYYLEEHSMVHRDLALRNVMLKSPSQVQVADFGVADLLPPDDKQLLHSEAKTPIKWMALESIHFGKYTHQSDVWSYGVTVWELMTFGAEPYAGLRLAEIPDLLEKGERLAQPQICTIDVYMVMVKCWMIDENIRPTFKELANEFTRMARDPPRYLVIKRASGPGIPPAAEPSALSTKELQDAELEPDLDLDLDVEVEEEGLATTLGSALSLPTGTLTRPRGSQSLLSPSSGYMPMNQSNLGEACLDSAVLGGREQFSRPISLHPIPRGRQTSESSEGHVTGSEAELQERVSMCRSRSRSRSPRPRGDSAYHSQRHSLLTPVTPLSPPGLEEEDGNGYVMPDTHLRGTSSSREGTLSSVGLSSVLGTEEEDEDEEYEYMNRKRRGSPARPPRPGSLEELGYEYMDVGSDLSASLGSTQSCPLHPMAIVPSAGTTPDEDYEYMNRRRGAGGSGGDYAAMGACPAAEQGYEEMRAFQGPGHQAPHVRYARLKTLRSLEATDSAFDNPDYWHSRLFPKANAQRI
T8 sequence (P21860 496-643): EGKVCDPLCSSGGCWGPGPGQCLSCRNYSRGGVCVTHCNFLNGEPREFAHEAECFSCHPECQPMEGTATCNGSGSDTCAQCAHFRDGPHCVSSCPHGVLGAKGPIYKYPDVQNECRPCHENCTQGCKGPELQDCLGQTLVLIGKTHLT
T9 sequence (P21860 20-183): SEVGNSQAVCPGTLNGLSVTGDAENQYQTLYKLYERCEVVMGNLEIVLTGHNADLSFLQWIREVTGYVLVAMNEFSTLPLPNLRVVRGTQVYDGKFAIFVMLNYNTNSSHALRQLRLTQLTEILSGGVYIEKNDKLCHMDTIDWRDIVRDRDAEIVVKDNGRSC

- Phospho-AKT ELISA IC50, heregulin induced, BxPC3 cells [1]: 0.0605 mg/L
- Kd [2]: 0.17 nM
- kon [2]: 345000 M⁻¹ s⁻¹
- Kd [3]: 0.06 nM
- kon [3]: 1.4e+06 M⁻¹ s⁻¹
- Kd [4]: 2.32 nM
- kon [4]: 41200 M⁻¹ s⁻¹
- Kd [5]: 0.07 nM
- kon [5]: 1.76e+06 M⁻¹ s⁻¹
- binding result [6]: no binding (tested: 10 ug/ml)
- Phospho-HER3 ELISA IC50, betacellulin induced, SK-BR-3 cells [7]: 0.0368 mg/L
- Phospho-HER3 ELISA IC50, epidermal growth factor induced, SK-BR-3 cells [7]: 0.0233 mg/L
- Phospho-HER3 ELISA IC50, heregulin induced, SK-BR-3 cells [7]: 0.0191 mg/L
- Phospho-HER3 ELISA IC50, heregulin induced, BT-474 cells [8]: 0.12 mg/L
- Phospho-HER3 ELISA IC50, heregulin induced, BxPC3 cells [8]: 0.0541 mg/L
- Phospho-HER3 ELISA IC50, heregulin induced, CHL-1 cells [8]: 0.138 mg/L
- Phospho-HER3 ELISA IC50, heregulin induced, MCF7 cells [8]: 0.0593 mg/L
- Phospho-HER3 ELISA IC50, heregulin induced, N87 cells [8]: 0.0533 mg/L
- Phospho-HER3 ELISA IC50, heregulin induced, SK-BR-3 cells [8]: 0.0191 mg/L
- EC50 (read off the curve) [9]: ~0.2 mg/L
- binding result [10]: binds
- Kd [11]: ~2 nM
- Kd [12]: 0.07 nM
- Phospho-HER3 … IC50, heregulin induced, CHO EGFR + HER3 [13]: 0.103 mg/L
- Phospho-HER3 … IC50, heregulin induced, CHO HER4 + HER3 [13]: 0.141 mg/L
- binding result [14]: no binding (tested: 10 ug/ml)
- binding result [15]: no binding (tested: 10 ug/ml)
B1: Murine 15D5 antibody (M5.15D5.2A1.1H10) (antibody, IgG1, V domains shown)
VH: EFQLQQSGPELVKPGASVKISCKASGYSFTDYNMNWVKQNNGKSLEWIGGINPNYGTTVYNQKFKGKATLTVDQSSSTAYMQLVSLTSEDSAVYYCARMTTIVPFDYWGQGTTLTVSS
VL: DIQMTQTTFSLSASLGDRVTISCRASQDISNYLNWYQQKPDGTVKLLIYYTSTLHSGVPSRFSGSGSGTDYFLTIRNLEEEDIATYFCQQGYTLPWTFGGGTKLDIK
notes: Mouse monoclonal, IgG1; also called m15D5; M5.15D5.1C1
